Assay results from PMC6536502, “Structural insights into DNA recognition by AimR of the arbitrium communication system in the SPbeta phage” (Cell Discovery, 2019).
Changes are numbered by the printed parent chain.

Tests used:
Conditions in all cases: protein: recombinant; tags: 6xHis removed by drICE; chain copies: 2
[1] = biological target: T1, AimR N46D (Bacillus phage SPbeta, UniProt O64094 1-386, N46D); experiment: EMSA; EMSA: 25 mM Tris-HCl pH 8.0, 150 mM NaCl, 5 mM MgCl2, 5 mM DTT, 0.1 mg/ml BSA, 10% glycerol, 50 ug/ml salmon sperm DNA, 4 C, 15 min; smFRET: 20 mM phosphate pH
T1 sequence: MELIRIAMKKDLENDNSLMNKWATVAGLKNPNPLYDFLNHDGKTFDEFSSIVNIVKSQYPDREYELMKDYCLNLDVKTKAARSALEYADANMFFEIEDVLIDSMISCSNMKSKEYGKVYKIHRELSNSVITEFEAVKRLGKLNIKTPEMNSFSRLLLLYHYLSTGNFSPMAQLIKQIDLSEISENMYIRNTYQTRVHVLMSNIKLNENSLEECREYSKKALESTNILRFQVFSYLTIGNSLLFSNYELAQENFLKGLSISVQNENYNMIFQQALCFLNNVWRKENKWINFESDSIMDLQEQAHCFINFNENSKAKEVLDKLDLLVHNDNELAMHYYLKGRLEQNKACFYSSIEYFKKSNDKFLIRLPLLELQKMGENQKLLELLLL

[2] = biological target: T2, AimR T78D (Bacillus phage SPbeta, UniProt O64094 1-386, T78D); experiment: as above
T2 sequence: T1 sequence with D46N, T78D

[3] = biological target: T3, AimR K77D (Bacillus phage SPbeta, UniProt O64094 1-386, K77D); experiment: as above
T3 sequence: T1 sequence with D46N, K77D

[4] = biological target: T4, AimR K120D (Bacillus phage SPbeta, UniProt O64094 1-386, K120D); experiment: as above
T4 sequence: T1 sequence with D46N, K120D

[5] = biological target: T5, AimR T44D (Bacillus phage SPbeta, UniProt O64094 1-386, T44D); experiment: EMSA; 5 mM Mg2+; EMSA: 25 mM Tris-HCl pH 8.0, 150 mM NaCl, 5 mM MgCl2, 5 mM DTT, 0.1 mg/ml BSA, 10% glycerol, 50 ug/ml salmon sperm DNA, 4 C, 15 min; smFRET: 20 mM phosphate pH
T5 sequence: T1 sequence with T44D, D46N

B1: 31 bp aimX-upstream palindromic DNA (dsDNA)
DNA 1: ACTTAAATATTAGGTTTTAATAACATCTAGT
DNA 2: ACTAGATGTTATTAAAACCTAATATTTAAGT
binding result [1]: binds | binding result [2]: binds | binding result [3]: binds | binding result [4]: binds | binding signal [5]: 11 fold lower affinity than WT AimR
